{
  "source": "patent US7824885B2",
  "about": "“Engineered proteases for affinity purification and processing of fusion proteins” (University of Maryland, College Park, priority 2003, dated 2010)",
  "molecules": {"B1": {"name": "S189: processing subtilisin with D32A mutation (protein, UniProt P00782 108-382, looked up, variant D32A)", "Subtilisin BPN'": "AQSVPYGVSQIKAPALHSQGYTGSNVKVAVIASGIDSSHPDLKVAGGASMVPSETNPFQDNNSHGTHVAGTVAALNNSIGVLGVAPSASLYAVKVLGADGSGQYSWIINGIEWAIANNMDVINMSLGGPSGSAALKAAVDKAVASGVVVVAAAGNEGTSGSSSTVGYPGKYPSVIAVGAVDSSNQRASFSSVGPELDVMAPGVSIQSTLPGNKYGAYNGTSMASPHVAGAAALILSKHPNWTNTQVRSSLENTTTKLGDSFYYGKGLINVQAAAQ"}},
  "type_in_all_cases": "biochemical",
  "key": {"[1]": {"tested_on": "fusion protein pR58-GB", "assay": "kinetics of fusion protein pR58-GB cleavage by D32 mutants, anion triggered", "settings": "0.1M KPi; for Rate vs. [Cl]: pH 8.8, 23 C; for Rate vs. pH: 23 C", "excerpt": "Particularly advantageous are processing proteases whose activity is triggered on demand. Ions which have been useful as triggers are OH— (pH), Cl— and F—. The tables summarize cleavage rates of various D32 mutants as a function of specific anion.\nThus, S189 can be trigger to increase cleavage rates if desired and this can be very advantageous when required in a purification process. Once the fusion protein is bonded to the subtilisin variant to form a binding complex, the target protein can be cleaved from the prodomain protein by activation of the subtilisin variant with the introduction of an activating ion solution."}, "[2]": {"tested_on": "pR58-GB", "assay": "binding and cleavage of pR58-GB on immobilized S189 matrix", "method": "The binding and catalytic properties of processing subtilisin allows them to be used as both the affinity matrix and processing protease for purification of proteins tagged with the pR58 sequence.\nAn E. coli cell lysate containing pR58-GB was passed over the matrix containing immobilized S189. Cleavage of the bound fusion protein then was then effected either by addition of a triggering anion (e.g. 10 mM KF) or by extended incubation (e.g. 18 hours at pH 7.2) as shown in FIG. 6. After cleavage the pure, processed protein was washed off the matrix while the cognate prodomain remains tightly bound to subtilisin on the matrix. Multiple rounds of purification can be affected by stripping the pR58 from the S189 column at pH 2.1 and re-equilibrating the column at neutral pH. High stable and facile-folding mutants such as those listed in the Table 1 (FIG. 3) of Processing Subtilisin are required for column recycling."}, "[3]": {"tested_on": "671 (pR58FKAM-GB)", "assay": "fluoride-triggered cleavage/elution of 671 fusion protein on S189HT1 column", "settings": "cleavage/elution by 0.1M KF, FIG. 14", "method": "(10 μl of 1 ml fraction 1; ˜7 μg total) • Lane 6: cleavage/elution by 0.1 M KF. (10 μl of 1 ml fraction 2; ˜3 μg total) • Lane 7: strip by 0.1 M H3PO4 (10 μl of 1 ml fraction 1; ˜10 μg total in both bands combined)."}},
  "data": [
    {"molecule": "B1", "values": [
      {"measurement": "Rate", "setting": "[1]; pH 7.2, 23 C", "value": 0.18, "unit": "h⁻¹"},
      {"measurement": "Rate vs. [Cl]", "setting": "[1]; [Cl] 0 M", "value": 0.97, "unit": "h⁻¹"},
      {"measurement": "Rate vs. [Cl]", "setting": "[1]; [Cl] 0.5 M", "value": 5, "unit": "h⁻¹"},
      {"measurement": "Rate vs. [F]", "setting": "[1]; [F] 0 mM, pH 7.2, 23 C", "value": 0.003, "unit": "min⁻¹"},
      {"measurement": "Rate vs. [F]", "setting": "[1]; [F] 1 mM, pH 7.2, 23 C", "value": 0.018, "unit": "min⁻¹"},
      {"measurement": "Rate vs. [F]", "setting": "[1]; [F] 10 mM, pH 7.2, 23 C", "value": 0.14, "unit": "min⁻¹"},
      {"measurement": "Rate vs. [F]", "setting": "[1]; [F] 100 mM, pH 7.2, 23 C", "value": 0.8, "unit": "min⁻¹"},
      {"measurement": "Rate vs. pH", "setting": "[1]; pH 5.7", "value": 0.135, "unit": "hr^−1"},
      {"measurement": "Rate vs. pH", "setting": "[1]; pH 7.2", "value": 0.18, "unit": "hr^−1"},
      {"measurement": "Rate vs. pH", "setting": "[1]; pH 8.8", "value": 0.97, "unit": "hr^−1"},
      {"measurement": "Rate vs. pH", "setting": "[1]; pH 10.0", "value": 4, "unit": "hr^−1"},
      {"measurement": "rate of binding to the prodomain", "setting": "[2]; FIG. 5", "value": "rapid"},
      {"measurement": "half-time of cleavage", "setting": "[2]; FIG. 6, a lag phase is evident", "value": "about four"},
      {"measurement": "cleavage reaction complete", "setting": "[3]", "value": "~90", "unit": "%"}
    ]}
  ]
}
